# Experimental data published in patent US20230287087A1 (MAX PLANCK GESELLSCHAFT ZUR F RDERUNG DER WISSENSCHAFTEN E V, published 2023).
# Several values for one entry are separate records, joined by “and”; a condition that tells them apart may be missing. Equal entries are not always repeated.
# B1: Re5D06R15 (VHH)
# VHH: QVQLVESGGGLVQPGGSLRLSCAASGITLDYYAMGWFREAPGKEREGVARIRNSDGSTNYADSVKGRFTMSRDNAKDTYYLQMNSLEPEDTADYYCAYGPLTKYGSSWYWPYEYDYWGQGTQVTVSS
# B2: Re5D06R28 (VHH)
# VHH: QVQLVESGGGLVQPGGSLRLSCAISGSTLDYYAMGWFREAPGKEREGVARWRNNDGSTNYADSVKGRFTMSRDNAKDTYYLQMNSLEPEDTADYYCAYGPLTKYGSSWHWPYEYDYWGQGTQVTVSS
# B3: Re9B09 (VHH)
# VHH: QVQLVESGGGLVQPGGSLRLSCAASGFTLDYYAIGWFRQAPGKEREGVSRISSSDGSTDYADSVKGRFTISRDNAKNTVYLQMNSLKPEDTAVYYCATVPGTYYSGNWYYTWHPEAVDYWGKGTQVTVSS
# B4: Re9H03 (VHH)
# VHH: QVQLVESGGGLVQPGGSLRLSCAASGFTLDYYAIGWFRQAPGKEREGVSRISSSDGSTDYADSVKGRFTISRDNAKNTVYLQMNSLKPEDTAVYYCATVPGTYYSGNWYYTWHPKAVDYWGKGTLVTVSS
# B5: Re6B06 (VHH)
# VHH: QVQLVESGGGLVQAGGSLRLSCAASGRAFSSAPMSWFRQAPGKEREFVASVSWSGDSTNYADSVKGRFTISRDNAKNTGYLQMNSLKPEDTAVYYCKRGPYWGQGTQVTVSS
# B6: Re7H02 (VHH)
# VHH: QVQLVESGGGLVQAGGSLRLSCAASGRAFESAPMSWFRQAPGKEREFVASVSWSGDSTNYADSVKGRFTISRDNAENTGYLQMNSLKPEDTAVYYCKRGPYWGQGTQVTVSS
# B7: Re9H01 (VHH)
# VHH: QVQLVESGGGLVQAGDSLRLSCAASGNIFSINAMGWYRQAPGKQRELVAFITSRGSTNYTDSVKGRFTISRDTAKDTVYLQMNSLKPEDTAVYFCRGGYSDYDIYFGSWGQGTQVTVSS
# B8: Re9C08 (VHH)
# VHH: QVQLVESGGGLVQPGGSLRLSCAVSGNIFGITAWDWHRQAPGKQRELVAHITSRGDTYYLDSVKGRFAISRDHAKNTLSLQMNSLKPEDTAVYYCYLRTFGPPNDHWGQGTQVTVSS
# B9: Re9F06-SpacerA-Re5D06R28D (bispecific antibody)
# chain: GSQVQLVESGGGLVQAGGSLRLSCAASGRTFSNDALGWFRQAPRKEREFVAAINWNSGTYYADSVKGRFTISRDNAKNTVYLQMNSLKPEDTAVYSCAAASDYGLPREDFLYDYWGQGTQVTVSSTSGEGEGGEGGEGSQVQLVESGGGLVQPGGSLRLSCAISGSTLDYYAMGWFREAPGKEREGVARWRNNDGSTNYADSVKGRFTMSRDNAKDTYYLQMNSLEPEDTADYYCAYGPLTKYGDEWHWPYEYDYWGQGTQVTVSSTS
# B10: Re10B10 (VHH)
# VHH: QVQLVESGGGLVQPGGSLRLSCAASGFTLDYYAIGWFRQAPGKEREGVSRIRSSDGSTTYADSVKGRFTISRDNAKNTVYLQMNSLKPEDTAVYYCAYGPLTKYGSSWYWPYEYDYWGQGTQVTVSS
# B11: Re5D06 (VHH)
# VHH: QVQLVESGGGLVQPGGSLRLSCAASGITLDYYAIGWFRQAPGKEREGVSRIRSSDGSTNYADSVKGRFTMSRDNAKNTVYLQMNSLKPEDTAVYYCAYGPLTKYGSSWYWPYEYDYWGQGTQVTVSS
# B12: Re7B01 (VHH)
# VHH: QVQLVESGGGLVQPGGSLRLSCGASGFTLDYYAIGWFRQAPGKEREGVSRIRSNDGSTDYADSVKGRFTISRDNAKNTVYLQMNSLKPEDTAVYYCAYGPLTKYGSSWYWPYEYDYWGQGTQVTVSS
# B13: Re6B02 (VHH)
# VHH: QVQLVESGGALVQPGGSLRLSCVASGFTLDYYAIGWFRQAPGKEREGVSRIRSSDGSTNYADSVKGRFTISRDNAKNTVYLQMNSLKPEDTAVYYCAYGPLTKYGSSWYWPYEYDYWGQGTQVTVSS
# B14: Re10F10 (VHH)
# VHH: QVQLVESGGGLVQPGGSLRLSCAASGFTLDYYAIGWFRQAPGKEREGVSRIRNNDGSTDYADSVKGRFTISRDNAKNTVYLQMNSLKPEDTAVYYCAYGPLTKYGSSWYWPYEYDYWGQGTQVTVSS
# B15: Re7E02 (VHH)
# VHH: QVQLVESGGGLVQAGGSLRLSCAASGFTLDYYAIGWFRQAPGKEREGVSYIRSSDGTTYYADSVKGRFTISRDNAKNTVYLQMNSLKPEDTAVYYCAADEAYYSELGWESPWGWSYWGQGTQVTVSS
# B16: Re6D06 (VHH)
# VHH: QVQLVESGGGLVQAGASLRLSCAASGRMFGVYRMGWFRQAPGKEREFVAGISTSVGTTNYADSVKGRFTISRDNAKNTVYLQMNSLKPEDTAVYYCAARDPTTYEYDYWGQGTQVTVSS
# B17: Re9B10 (VHH)
# VHH: QVQLVESGGGLVQPGGSLRLSCAASGRMFGVYRMGWFRQAPGKEREFVAGISTSVGTTNYADSVKGRFTISRDNAKNTVYLQMNSLKPEDTAVYYCAARDPTTYEYDYWGQGTQVTVSS
# B18: Re5A08 (VHH)
# VHH: QVQLVESGGGLVQAGGSLRLSCTASGHTFTANRMGWFRQAPGKEREFVAAINWGGDSTNYVDSVKGRFTISRDIAKNTVYLQMNSLKPEDTAVYFCAARNHVTGEFDSWGQGTQVTVSS
# B19: Re6A11 (VHH)
# VHH: QVQLVESGGGLVQAGGSLRLSCAASGRTFSNDALGWFRQAPRKEREFVAAINWNSGTYYADSVKGRFTISRDNAKNTVYLQMNSLKPEDTAVYSCAAASDYGLPREDFLYDYWGQGTLVTVSS
# B20: Re6A11/Re9F06 ColXVIII trimer (VHH)
# VHH: QVQLVESGGGLVQAGGSLRLSCAASGRTFSNDALGWFRQAPRKEREFVAAINWNSGTYYADSVKGRFTISRDNAKNTVYLQMNSLKPEDTAVYSCAAASDYGLPREDFLYDYWGQGTLVTVSS
# B21: Re9F06 (VHH)
# VHH: QVQLVESGGGLVQAGGSLRLSCAASGRTFSNDALGWFRQAPRKEREFVAAINWNSGTYYADSVKGRFTISRDNAKNTVYLQMNSLKPEDTAVYSCAAASDYGLPREDFLYDYWGQGTQVTVSS
# B22: Re9F06-SpacerA-Re9B09 (bispecific antibody)
# chain: GSQVQLVESGGGLVQAGGSLRLSCAASGRTFSNDALGWFRQAPRKEREFVAAINWNSGTYYADSVKGRFTISRDNAKNTVYLQMNSLKPEDTAVYSCAAASDYGLPREDFLYDYWGQGTQVTVSSTSGEGEGGEGGEGSQVQLVESGGGLVQPGGSLRLSCAASGFTLDYYAIGWFRQAPGKEREGVSRISSSDGSTDYADSVKGRFTISRDNAKNTVYLQMNSLKPEDTAVYYCATVPGTYYSGNWYYTWHPEAVDYWGKGTQVTVSSTS
# B23: Re5F10 (VHH)
# VHH: QVQLVESGGGLVQPGGSLRLSCVASGFTFSSFAMGWYRQAPGKECEWVATITITGGSTNYADSVKGRFTISRDNAKNTVYLQMNSLKPEDTAVYYCNPDPGCRRGQGTQVTVSS
# Key:
# [1] = biological target: T1, B.1.617.2/Delta RBD (40592-V08H90, Sino Biologicals) (SARS-CoV-2, UniProt P0DTC2 319-541); assay: BLI, biotinylated VHH on streptavidin sensor, RBD in solution
# [2] = biological target: T2, SARS-CoV-2 spike receptor-binding domain (RBD), wild type (SARS-CoV-2, UniProt P0DTC2 319-541); assay: as above
# [3] = biological target: T3, Spike protein of patient-derived SARS-CoV-2 (D614G) (SARS-CoV-2, UniProt P0DTC2 14-1273); assay: cell-based or functional assay
# [4] = biological target: quadruple (K417T, L452R, E484K, N501Y) RBD mutant (SARS-CoV-2, UniProt P0DTC2 319-541); assay: method not stated
# [5] = biological target: T3, Spike protein of patient-derived …; assay: cell-based or functional assay; remark: listed apart in the source
# [6] = biological target: T3, Spike protein of patient-derived …; assay: cell-based or functional assay; remark: listed apart in the source
# [7] = biological target: T1, B.1.617.2/Delta RBD (40592-V08H90, Sino …); assay: BLI, biotinylated VHH heterodimer on streptavidin sensor, RBD in solution
# [8] = biological target: T2, SARS-CoV-2 spike receptor-binding …; assay: as above
# [9] = biological target: Californian RBD mutant (L452R) (SARS-CoV-2, UniProt P0DTC2 319-541); assay: method not stated
# [10] = biological target: T2, SARS-CoV-2 spike receptor-binding …; assay: method not stated
binder,measurement,setting,value
B1,Kd,[1],0.03 nM
same,Kd,[2],≤ 0.01 nM
B2,Kd,[1],0.08 nM
same,Kd,[2],≤ 0.01 nM
B3,Lowest SARS-COV-2-neutralizing concentration,[3],170 pM
same,Kd,[1],0.1 nM
same,Kd,[2],≤ 0.01 nM
B4,Lowest SARS-COV-2-neutralizing concentration,[3],170 pM
same,fold better binding than Re9B09,[4],100 fold
B5,"viral RNA in supernatants of infected cells (qRT-PCR), fold inhibition",[5],~300 fold
same,Lowest neutralizing VHH concentration,[6],50000 pM and 750 µg/liter
same,Lowest SARS-COV-2-neutralizing concentration,[3],170000 pM
B6,Lowest neutralizing VHH concentration,[6],17000 pM and 250 µg/liter
same,Lowest SARS-COV-2-neutralizing concentration,[3],17000 pM
B7,Lowest SARS-COV-2-neutralizing concentration,[3],170 pM
B8,Lowest SARS-COV-2-neutralizing concentration,[3],500 pM
B9,Kd,[7],≤ 0.01 nM
same,Kd,[8],≤ 0.01 nM
B10,Lowest SARS-COV-2-neutralizing concentration,[3],50 pM
B11,Kd,[9],~0.4 nM
B12,Lowest SARS-COV-2-neutralizing concentration,[3],50 pM
B13,Lowest SARS-COV-2-neutralizing concentration,[3],50 pM
B14,Lowest SARS-COV-2-neutralizing concentration,[3],50 pM
B15,Lowest SARS-COV-2-neutralizing concentration,[3],500 pM
B16,Lowest neutralizing VHH concentration,[6],1700 pM and 25 µg/liter
same,Lowest SARS-COV-2-neutralizing concentration,[3],500 pM
B17,Lowest SARS-COV-2-neutralizing concentration,[3],500 pM
B18,Lowest neutralizing VHH concentration,[6],5000 pM and 75 µg/liter
B19,Lowest neutralizing VHH concentration,[6],50000 pM and 750 µg/liter
B20,Lowest neutralizing VHH concentration,[6],170 pM and 4 µg/liter
B21,Lowest SARS-COV-2-neutralizing concentration,[3],50000 pM
B22,Kd,[7],≤ 0.01 nM
same,Kd,[8],≤ 0.01 nM
B23,Lowest SARS-COV-2-neutralizing concentration,[3],1700 pM
same,Kd,[4],0.03 nM
same,Kd,[10],0.03 nM
same,Kd,[1],0.04 nM
same,Kd,[2],0.04 nM
